Test results published in the supplement of paper PMC12042874.
± gives the uncertainty stated by the source.

Experiment: amyloid nucleation score (Sup35N fusion, yeast selection) (log enrichment); library NNK1; higher = more nucleation; inactive = no reads after selection
Method in brief: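 Peptides of 20 random codons fused to Sup35N were expressed in psi-negative yeast, induced 24 hours with 100 μM copper sulfate, then grown 7 days at 30°C on medium lacking adenine and uracil. Input and output plasmid inserts were Illumina-sequenced. Nucleation score is the DiMSum log enrichment of output over input reads, centred on the mode score of non-aggregating sequences, excluding sequences with under 100 input reads. Random libraries had three technical output replicates.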

| Substance | amyloid nucleation score |
| --- | --- |
| SLLCWKLAVHQLGMIGNIYS | -0.452 ± 0.47 |
| EMRNLNLYVLAEPNGVGNSA | inactive |
| FKSILRYPADRKMS | 0.997 ± 0.76 |
| RRMKFDMSNGRQGSLVNHGR | 0.214 ± 0.53 |
| KHSGFQTCVNYLD | -0.194 ± 0.42 |
| RRGAKRSLWLIRNLWWDKSK | inactive |
| ISCGCMRVLTRDNLFLKFRF | 0.12 ± 0.58 |
| IWLSLYIAFYGCLHGWFPSQ | 0.645 ± 0.6 |
| FYKLVSLREIGMIQVIRGLD | -0.395 ± 0.47 |
| FSSICSRMEEGMTE | 0.001 ± 0.34 |
| NRKEFKCSRWHRGNWYVNAR | -0.378 ± 0.79 |
| RVGEKSVEWPAFLRYLMKWF | -0.008 ± 0.5 |
| VKMNVYYLIILNLWSYVMLG | -0.994 ± 1.4 |
| LTRKTVRKTSKNRIGLHHQT | inactive |
| TCHSKSVCCLYGLCGGPEWG | 6.453 ± 0.055 |
| SSGDGRRAP | 0.335 ± 0.39 |
| FQSISGFSATHWIFFMEGTY | 0.216 ± 0.45 |
| FPSNPYPNLPNMDVKRSNAF | inactive |
| IRGLRVLHSVFLALLVCKNL | -0.136 ± 0.59 |
| DRYSNTTFNHIA | 0.779 ± 0.47 |
| ISDFAYWQILCRVSDIFKVQ | 2.31 ± 0.13 |
| ISLLGIWV | 0.939 ± 0.31 |
| CWDKRLNSY | 0.688 ± 0.61 |
| KVLNILYWGRTDVG | 1.41 ± 0.33 |
| ILSEPNELTGACLAS | 0.29 ± 0.78 |

| Substance | amyloid nucleation score |
| --- | --- |
| WSVDIGLRGLIMRMKYCEFR | -1.01 ± 0.54 |
| IFKDLCLTTSGLDIDPNFND | 0.762 ± 0.51 |
| CLFDHKFMRIALHL | inactive |
| KKPQSGSCTRLSSESYKSVY | 0.464 ± 0.82 |
| RKCLESTTRSFLAVRS | 3.3 ± 0.097 |
| MFAVMNGAVLSTPLDNVCRV | -0.581 ± 1.6 |
| LRSSWRTSIWHTWLWPYGDW | 0.287 ± 0.87 |
| GCLRVSDTIRGMPRQSLDWA | 0.445 ± 0.28 |
| FFMLFRCGF | 0.333 ± 0.87 |
| VVRDRNYPFYLIIGRSVVLG | 5.16 ± 0.061 |
| WIRHSNNICMM | 1.26 ± 0.18 |
| FLHFVYRI | -0.578 ± 1 |
| IIFKSVNYLLPIVVKNMCGT | 1.16 ± 0.13 |
| SLKDVPISCFNYMHC | 4.39 ± 0.094 |
| WLDHEISSELAGYPLWLSAN | 2.19 ± 0.17 |
| TCLHYAVCMRSLVSQSALFV | -0.771 ± 1.7 |
| NDRVNRNTFSYPWQVAFFRQ | 4.94 ± 0.064 |
| ILMILNLRTTSPWDWNWVSV | 0.296 ± 0.83 |
| LVYSFRKTFSC | 7.523 ± 0.047 |
| CDSKLHISSSC | 0.313 ± 0.84 |
| CTMSTSMPHRAVRRELSSIE | 0.052 ± 0.3 |
| GYGNRNLALARGMLGQIL | 0.215 ± 0.46 |
| SHERLNQCSNFSSWQNRGGL | -0.588 ± 0.73 |
| YLFSIVFCNV | 2.67 ± 0.29 |
| SCGSVFF | -0.758 ± 2.1 |

| Substance | amyloid nucleation score |
| --- | --- |
| WHKMMQLSLCSEYELLFNLQ | 0.51 ± 0.9 |
| NGFRSVQVLGKGAVMCVNCR | inactive |
| LLNLYWFLSVPDTINLSHER | 8.087 ± 0.05 |
| CKRLS | -0.216 ± 1.1 |
| VIMQFFILCPHSVCISSENH | 7.497 ± 0.049 |
| VSCQQTFASLFFGILAGKSI | -0.006 ± 0.54 |
| LLVVVTLAI | 0.89 ± 0.51 |
| VRLAL | -0.27 ± 0.26 |
| YLELLPAYRLFTGLVVLLMI | 0.736 ± 0.13 |
| GYNWGFVHCSYRSSHFGSGF | 0.348 ± 0.26 |
| SVWDGFSLRYPSLVYLRCGS | -0.634 ± 0.71 |
| MKLNGFVWPG | -0.256 ± 0.55 |
| CIRGGSIWLMGHNVREVC | 0.401 ± 0.49 |
| AYAEIYERSEPGKDRHYLFM | -0.313 ± 0.74 |
| SILETLGLAFVK | -0.41 ± 0.57 |
| TFVSL | 0.332 ± 0.49 |
| HCLSFMIFESNLIIFMNRIR | 0.222 ± 0.2 |
| MVDMLVKMGYRLLGRYISMR | 0.942 ± 0.69 |
| IAYGSINCGFNRL | 1.18 ± 0.32 |
| GGCMV | 0.493 ± 0.42 |
| SMYFSHVSPFVWRSYCFLVC | inactive |
| NGWNYM | -0.349 ± 1 |
| LIKRVQLFV | -0.284 ± 0.4 |
| IGCSI | inactive |
| NNRNQAMKVYNLVSLIEAKR | -0.218 ± 1 |

| Substance | amyloid nucleation score |
| --- | --- |
| GLFNSDRVNQWPPGPCRDYV | 0.5 ± 0.28 |
| RCVIDDKLWGISLRGPMMGV | -1.48 ± 1.9 |
| FFDYGDAWSFHRMNNWDVLY | -0.935 ± 0.62 |
| VYAILKDFFYFFGVNFFCCF | 4.18 ± 0.06 |
| VCRVMTSLNEGKLSAECVLV | 0.594 ± 0.32 |
| LCWFWGYVISYREMIYAESV | inactive |
| YRGKRDKVVGSMMCMWRT | 0.518 ± 0.52 |
| FFCSNDLSFVAELILINRQV | 0.87 ± 0.58 |
| LSPSCCCFYVLGIVT | 3.57 ± 0.081 |
| HVTMKMIASSTMLDQHSWAR | -0.065 ± 0.32 |
| ITMSYMSAKCVNWVVWACRL | 0.286 ± 0.31 |
| MDSYLSSNCKCDTLDVGGNE | -1.17 ± 1.6 |
| DSYWILSLLWGL | -0.369 ± 0.19 |
| RDWLLTLVLTLSQGPTTCAT | 0.247 ± 1.4 |
| MKNFPLYSCP | -0.66 ± 0.69 |
| RGGNIVKHRLFGPDGGAYWK | -0.591 ± 0.79 |
| FRLSWHSYNSMWINTVTSPQ | 2.75 ± 0.078 |
| VCYLGECRGHAIMEYWWSWR | 2.4 ± 0.24 |
| ENQFTVLSNGFDVIALFSFE | 1.07 ± 0.93 |
| SMCNCDPSVALRSMY | -0.279 ± 0.25 |
| NYSYVTWNLFGQSPICSLWY | 6.103 ± 0.049 |
| IFGYMSGS | 0.543 ± 0.63 |
| HFAPLFDYNLTGIKTLKTAD | 0.1 ± 0.77 |
| RGISYLV | -0.212 ± 0.68 |
| FGSSVSAVNFRVV | -0.448 ± 0.4 |

| Substance | amyloid nucleation score |
| --- | --- |
| LLVSGVRSRKTQRWSFRACS | 0.634 ± 0.7 |
| DFSSNDGWV | 0.444 ± 0.47 |
| SLGLNMFGLLCSNFQSVRVK | 0.129 ± 0.53 |
| LVPCSWFYLDRSAQDSDCFS | -0.754 ± 1.1 |
| GDIVQLGPKFCKLYLCIWNC | 6.369 ± 0.056 |
| DDWAGLKFSYLWSVCCKWWD | 2.52 ± 0.15 |
| RAMTVLLGGNFQMIIKTFEL | 3.09 ± 0.074 |
| TARWAKPVADNGCVNNTFLW | 2.15 ± 0.27 |
| PDCRSYLTIF | 0.486 ± 0.31 |
| VSNTHVNGGWSRRNGQWLGV | -0.708 ± 0.45 |
| SSWLC | 1.4 ± 0.47 |
| SRCRNYYKVHVL | -1.17 ± 1.7 |
| LPVFELSHTHSVKSLDGNGQ | -0.308 ± 0.33 |
| DSGVAVQMFEQTTGDPGIEG | -0.883 ± 0.76 |
| TFCRLISGPKIRL | -0.058 ± 0.42 |
| GHFRSASRKYALTV | -0.619 ± 0.51 |
| TYWGC | 0.186 ± 1 |
| TGRSIMPLSYRTYCIDEFVS | 0.004 ± 0.3 |
| NFFCDSISY | -0.908 ± 1.1 |
| CVFYGFWYFGW | 0.145 ± 0.34 |
| ISTFLRFSQSDEQYYPTE | 0.496 ± 0.48 |
| IFAPAIMSFYSLVIQWPYPG | 1.99 ± 0.45 |
| ELSGGA | 3.75 ± 0.1 |
| CVFSVRYALDRWDPTKCEVG | 0.325 ± 0.43 |
| QFPERWDPFLPMSRASRYYH | 0.865 ± 0.69 |

| Substance | amyloid nucleation score |
| --- | --- |
| PMIPKFMSERCQLIWWM | 0.961 ± 0.7 |
| AASKIIENIGHLC | -0.337 ± 0.52 |
| RGRRDAGGYRSKSFLGAWGV | 0.837 ± 0.21 |
| DNDSWYKYPCFWLCYFPACN | 5.17 ± 0.052 |
| CPRPYDRSALSRKLY | 0.713 ± 0.32 |
| GTYLAFYSLSLCRYTKCLER | -0.22 ± 0.47 |
| TSGPN | -0.882 ± 0.6 |
| RVRSSMCGALWARKFYRTHI | -0.116 ± 0.49 |
| GLHKYPCYPTNSRYVVVINM | 3.27 ± 0.066 |
| RTINMQLVTLYLTSRVVDNF | 1.1 ± 0.47 |
| CVHQIVGLTRIPFGWELSWR | -1.62 ± 1.7 |
| VVVVMRR | 1.94 ± 0.23 |
| VGKVCRTFNRSMGETS | 0.439 ± 0.92 |
| FVKVAPANKGISGKRDLCKL | 0.215 ± 0.3 |
| LSSPLLS | 0.66 ± 0.44 |
| HPFYIFAVYIFPYHCLSCSL | 0.331 ± 0.33 |
| RAHNKISDDTRAFMGSIFSE | -0.05 ± 1.4 |
| LYMVWCACSFWDYITVFIFM | 0.041 ± 0.65 |
| CSYRWVELLCSC | 3.93 ± 0.11 |
| LNICGIWGGVVSEGARNVFY | 0.063 ± 0.33 |
| FLAIILSWPFSAQFGFNVEG | 0.533 ± 0.62 |
| FIYLVLLSR | 1.32 ± 0.23 |
| DGLLTGLQDRPNSSRFKYVM | 0.421 ± 0.33 |
| QLVIILERRSWCHIL | 2.42 ± 0.27 |
| ALPCYCPPVQSPCASFGWME | -0.569 ± 0.29 |

| Substance | amyloid nucleation score |
| --- | --- |
| LTHWTQHMF | -0.37 ± 0.87 |
| LPAGSDVCLY | 3.23 ± 0.13 |
| GMYRVNSWIMSL | inactive |
| SMKWSLYLQCRIMYIQTDSR | 3.21 ± 0.12 |
| TLMRCVFLLYYPCGYIKSDL | 0.551 ± 0.31 |
| FWLCRYTIGSRLLFVVQTST | 0.986 ± 0.65 |
| TNRVHLWFVL | 7.57 ± 0.078 |
| STTIPRVFGSTYNSYNVSIS | 0.384 ± 0.34 |
| CICLDTSGSVLYSLCTDCGL | 0.871 ± 0.69 |
| TVVEVRGVEQRHGLNCTNPG | -0.05 ± 0.57 |
| IDVFLNALSVWNVIVDLIIV | -0.225 ± 0.42 |
| HHKPRPNIQFFRYSCKERAS | 0.035 ± 1 |
| HNMGWLFLLAVYLQMFT | -0.765 ± 1.1 |
| TIDKNNMESFITGFFGVRIL | 1.3 ± 0.4 |
| LVVFISRVFTNDITFRFANI | 0.675 ± 0.78 |
| IVKGLSCKIDWLCASMHWMR | 0.053 ± 0.36 |
| KRGLAVLGAPKQMQTACWGQ | 0.229 ± 0.83 |
| NEEGVIQSFILVDALVVQGL | 0.391 ± 0.39 |
| HVNLLNRTLCK | 0.151 ± 0.9 |
| LYFWFVCNFAEIDFTITL | 3.05 ± 0.097 |
| NGVRYTVRLFMVLWR | -1.58 ± 2.4 |
| KLSSKWTRACRHNSC | -0.134 ± 1.3 |
